# Target: EphA2 extracellular domain fused to the Fc portion of an antibody (EphA2 Fc)
# Experiment: ELISA, inhibition of ephrin-A5 AP binding to immobilized EphA2 Fc; representative experiment; concentrations in nM
# EphA2 extracellular domain fused to the Fc portion of an antibody (EphA2 Fc), sequence (P29317 whole entry, the tested form may be a part): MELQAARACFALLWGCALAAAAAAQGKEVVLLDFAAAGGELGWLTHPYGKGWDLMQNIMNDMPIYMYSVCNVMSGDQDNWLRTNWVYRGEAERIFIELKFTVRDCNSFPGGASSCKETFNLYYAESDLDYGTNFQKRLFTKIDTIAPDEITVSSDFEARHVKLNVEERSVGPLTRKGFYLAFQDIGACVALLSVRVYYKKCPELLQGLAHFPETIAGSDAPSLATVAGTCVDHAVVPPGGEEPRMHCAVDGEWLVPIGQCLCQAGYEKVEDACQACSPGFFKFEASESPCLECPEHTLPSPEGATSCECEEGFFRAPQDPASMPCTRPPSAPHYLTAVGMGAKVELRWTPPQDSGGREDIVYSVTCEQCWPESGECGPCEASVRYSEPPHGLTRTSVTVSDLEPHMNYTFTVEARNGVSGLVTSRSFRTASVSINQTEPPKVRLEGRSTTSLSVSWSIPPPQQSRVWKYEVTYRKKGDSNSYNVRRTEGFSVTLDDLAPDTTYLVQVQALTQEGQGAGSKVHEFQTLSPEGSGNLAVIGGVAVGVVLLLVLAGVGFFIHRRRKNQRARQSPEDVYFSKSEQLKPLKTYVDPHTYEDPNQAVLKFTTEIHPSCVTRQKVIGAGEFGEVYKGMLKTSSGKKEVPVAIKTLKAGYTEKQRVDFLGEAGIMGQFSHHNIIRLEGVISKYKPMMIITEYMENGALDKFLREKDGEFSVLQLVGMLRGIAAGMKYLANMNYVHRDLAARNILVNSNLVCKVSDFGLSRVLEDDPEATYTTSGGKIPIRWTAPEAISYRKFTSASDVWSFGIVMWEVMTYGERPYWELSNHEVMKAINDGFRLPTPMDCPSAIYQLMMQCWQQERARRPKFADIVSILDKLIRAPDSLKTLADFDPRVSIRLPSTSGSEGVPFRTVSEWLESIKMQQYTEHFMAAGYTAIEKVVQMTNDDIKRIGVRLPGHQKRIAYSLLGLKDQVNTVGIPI
row,Substance,IC50 [µM]
1,YSA-K-bio (peptide),2.8
2,YSA1-10am (peptide),3.5

# Reference: patent US12398179
